This is an account of results in patent publication US20140364360A1.

Where only a bound is given, the exact number is not on record here.

Experiment [1] addresses CCR5 (human) (UniProt P51681). Briefly: flow cytometry competition on CD8+ T cells of human PBMC; 5P12-RANTES at 100 ng/ml or greater; competitor antibody 2D7. On the technique in general: A flow cytometer gives signals particle by particle.
In experiment [2] the target is CCR5 (human) (UniProt P51681). Put plainly: flow cytometry competition on CD8+ T cells of human PBMC; 5P12-RANTES at 0.8 ng/ml or less; competitor antibody 2D7.

UniProt P51681, sequence (P51681 whole entry): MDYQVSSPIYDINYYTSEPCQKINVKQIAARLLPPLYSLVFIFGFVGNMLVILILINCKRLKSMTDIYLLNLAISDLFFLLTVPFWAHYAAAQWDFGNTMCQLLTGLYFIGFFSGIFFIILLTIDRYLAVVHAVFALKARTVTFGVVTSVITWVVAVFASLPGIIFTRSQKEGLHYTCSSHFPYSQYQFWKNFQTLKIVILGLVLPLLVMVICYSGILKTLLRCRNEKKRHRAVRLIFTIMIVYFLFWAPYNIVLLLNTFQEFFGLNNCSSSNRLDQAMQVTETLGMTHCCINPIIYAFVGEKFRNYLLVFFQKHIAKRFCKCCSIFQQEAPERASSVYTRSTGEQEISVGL

Turning to 5P12-RANTES (ligand), the 2D7% binding with CCR5 (human) [1] was less than 1%; with CCR5 (human) [2], 20%.
